# Results as given in the supplement of paper PMC7125110.
# ± gives the standard error. Fewer inactive variants are shown than the library holds.
# B1: glmS ribozyme (parent)
# chain: AUAAAAGCGCCAGAACUACAGAAAUGUAGUUGACGAGGAGGAGGUUUAUCGAAUUUUCGGCGGAUGCCUCCAAA
# How the values were obtained:
# Settings in all cases: with glucosamine-6-phosphate
# glucosamine-6-phosphate [1] = variants of: B1; test: self-cleavage kobs at 160 uM GlcN6P; higher = faster cleavage; RNA array
# How it was run: (§1)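 Weighted Michaelis–Menten fits across concentrations supplied kcat and KM, based on kobs from one- or two-exponential decay fits to normalised per-tile medians. The data came from barcoded ribozyme variants transcribed in situ by E. coli RNA polymerase on sequenced MiSeq chips and tracked at 37 °C by a hybridised Cy3 probe. Glucosamine-6-phosphate (40 μM to 10 mM) in HEPES/KCl/Mg(OAc)2 buffer was flowed in.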
# glucosamine-6-phosphate [2] = variants of: B1; test: self-cleavage kobs at 10000 uM GlcN6P; higher = faster cleavage; RNA array
# How it was run: as §1
# glucosamine-6-phosphate [3] = variants of: B1; test: self-cleavage kobs at 640 uM GlcN6P; higher = faster cleavage; RNA array
# How it was run: as §1
# glucosamine-6-phosphate [4] = variants of: B1; test: self-cleavage kobs at 2500 uM GlcN6P; higher = faster cleavage; RNA array
# How it was run: as §1
Variant,self-cleavage kobs at 160 uM GlcN6P (glucosamine-6-phosphate [1]),self-cleavage kobs at 10000 uM GlcN6P (glucosamine-6-phosphate [2]),self-cleavage kobs at 640 uM GlcN6P (glucosamine-6-phosphate [3]),self-cleavage kobs at 2500 uM GlcN6P (glucosamine-6-phosphate [4])
G38C G44U C67G,< 1e-05 s⁻¹,< 1e-05 s⁻¹,,
U31C G35C,< 1e-05 s⁻¹,< 1e-05 s⁻¹,< 1e-05 s⁻¹,< 1e-05 s⁻¹
C34A U45A C70U,< 1e-05 s⁻¹,,< 1e-05 s⁻¹,< 1e-05 s⁻¹
G7U G13U A14U A48G U54A,< 1e-05 s⁻¹,,< 1e-05 s⁻¹,< 1e-05 s⁻¹
A33C U46C U56C G59C,< 1e-05 s⁻¹,,< 1e-05 s⁻¹,< 1e-05 s⁻¹
U31G A33C U46G A53G G59A G63A,< 1e-05 s⁻¹,,,< 1e-05 s⁻¹
A52G C68G U69C,5.98e-05 ± 2.7e-05 s⁻¹,,,
G7U G38A G40A G62A,< 1e-05 s⁻¹,,< 1e-05 s⁻¹,< 1e-05 s⁻¹
A52G A64C,< 1e-05 s⁻¹,,< 1e-05 s⁻¹,< 1e-05 s⁻¹
A12C G35C,< 1e-05 s⁻¹,,< 1e-05 s⁻¹,< 1e-05 s⁻¹
U55G G63C,< 1e-05 s⁻¹,,,< 1e-05 s⁻¹
A15C C16G C67G,< 1e-05 s⁻¹,,,
C11A C16U G44U A53G C71G,< 1e-05 s⁻¹,,< 1e-05 s⁻¹,
A33U U45G,< 1e-05 s⁻¹,3.8e-05 ± 7.6e-06 s⁻¹,,
G38U G59A,< 1e-05 s⁻¹,,,
C16U A52G C68U,6.54e-05 ± 2.2e-05 s⁻¹,,0.000491 ± 0.00012 s⁻¹,0.000422 ± 0.00016 s⁻¹
A36G G44A U55C U65G,< 1e-05 s⁻¹,,< 1e-05 s⁻¹,< 1e-05 s⁻¹
G7A G59U C70A,< 1e-05 s⁻¹,,,< 1e-05 s⁻¹
G9A C10A,< 1e-05 s⁻¹,< 1e-05 s⁻¹,< 1e-05 s⁻¹,< 1e-05 s⁻¹
U30G G32U A36U G60A U69C C71A,< 1e-05 s⁻¹,,,
A12U C16A G41C,< 1e-05 s⁻¹,,,
G9U C11U G38C,< 1e-05 s⁻¹,,< 1e-05 s⁻¹,< 1e-05 s⁻¹
G29A U65A C70U,7.19e-05 ± 3e-05 s⁻¹,,8.13e-05 ± 1.7e-05 s⁻¹,0.000148 ± 3.6e-05 s⁻¹
G32A G37C,< 1e-05 s⁻¹,< 1e-05 s⁻¹,< 1e-05 s⁻¹,< 1e-05 s⁻¹
U30C C50U C70G,5.6e-05 ± 1.7e-05 s⁻¹,,0.000134 ± 3.3e-05 s⁻¹,0.000173 ± 3.3e-05 s⁻¹
